Experimental data published in patent publication US20190233485A1 (LEIDEN UNIVERSITY MEDICAL CENTER, published 2019).

T1: Bob1 (B cell Oct binding protein 1, gene POU2AF1) peptide on HLA-A*02:01 (human)
T1 peptide: YALNHTLSV

T2: Bob1 (B cell Oct binding protein 1, gene POU2AF1) peptide on HLA-B*07:02 (human)
T2 peptide: APAPTAVVL


Assays:
HLA-A*0201 = target: T3, HLA-A*0201 (human); assay: polypeptides eluted from HLA of HLA-typed EBV-LCLs (HLA elution database); allele as in Table 1
T3 construct: HLA class I molecule on HLA-typed EBV-LCLs from which the polypeptides were eluted; also called HLA-A2

[1] = target: T1, Bob1 (B cell Oct binding protein 1, …); assay: multimer staining
HLA-B*0702 = target: T4, HLA-B*0702 (human); assay: polypeptides eluted from HLA of HLA-typed EBV-LCLs (HLA elution database); allele as in Table 1
T4 construct: HLA class I molecule on HLA-typed EBV-LCLs from which the polypeptides were eluted; also called HLA-B7

[2] = target: T2, Bob1 (B cell Oct binding protein 1, …); assay: multimer staining

| Binder | binding result (HLA-B*0702) | further results |
| --- | --- | --- |
| YALNHTLSV (Bob1-derived peptide from the HLA elution set) [BOB1245 peptide YALNHTLSV] | – | binding result (HLA-A*0201): binds |
| TCR of T cell clone 3C10 (TCR, V domains shown) Valpha: GENVEQHPSTLSVQEGDSAVIKCTYSDSASNYFPWYKQELGKGPQLIIDIRSNVGEKKDQRIAVTLNKTAKHFSLHITETQPEDSAVYFCAASTGGGYSTLTFGKGTMLLVSP Vbeta: DAGVIQSPRHEVTEMGQEVTLRCKPISGHDYLFWYRQTMMRGLELLIYFNNNVPIDDSGMPEDRFSAKMPNASFSTLKIQPSEPRDSAVYFCASSGQGITLAGANVLTFGAGSRLTVL | – | binding result [1]: recognises |
| APARPYQGV (Bob1-derived peptide from the HLA elution set) [BOB114 peptide APARPYQGV] | binds | – |
| TCR of T cell clone 4G11 (TCR-4G11) (TCR, V domains shown) Valpha: GENVEQHPSTLSVQEGDSAVIKCTYSDSASNYFPWYKQELGKGPQLIIDIRSNVGEKKDQRIAVTLNKTAKHFSLHITETQPEDSAVYFCAASKGSSNTGKLIFGQGTTLQVKP Vbeta: DTEVTQTPKHLVMGMTNKKSLKCEQHMGHRAMYWYKQKAKKPPELMFVYSYEKLSINESVPSRFSPECPNSSLLNLHLHALQPEDSALYLCASSHGPASYEQYFGPGTRLTVT | – | binding result [2]: recognises |
| APAPTAVVL (Bob1-derived peptide from the HLA elution set) [BOB144 peptide APAPTAVVL] | binds | – |
| APALPGPQF (Bob1-derived peptide from the HLA elution set) [BOB1197 peptide APALPGPQF] | binds | – |
